From US20230287457

System: Nla type I-C Cascade + Cas3 expressed in E. coli (Neisseria lactamica)
Experiment: cell_activity
Settings: PAM 5'-TTC; E. coli plasmid interference

With “native CRISPR spacer 1 crRNA ; spacer 1 target with 5'-TTC PAM” the activity (fold reduction in colony count) was 1000.
